Assay results taken from publication PMC11863921 (BMC Biology, 2025).
One block for each substance: values may come before it.

What was measured:
[1] = target: Asterias rubens relaxin family peptide receptor/leucine-rich repeat G protein-coupled receptor 3 (isoform X2) (Asterias rubens)
[2] = target: modified ArubRXFP/LGR3 (N-terminal region with the predicted internal signal peptide replaced by the prolactin precursor signal peptide) (Asterias rubens)
[3] = test system: ovarian fragments of A. cf. solaris; test: In vitro spawning assay with ovarian fragments of A. cf. solaris; conditions: 1 h, semi-quantitative
Source text: Adult A. cf. solaris were collected from the Great Barrier Reef by Pacific Marine Group divers associated with the Great Barrier Reef Marine Park Authority (GBRMPA) before being transported to the University of the Sunshine Coast aquarium facility. Animals were briefly maintained in a re-circulating protein-skimmed and aerated saltwater system of approximately 1500 L. The animals used were approximately 25–55 cm in diameter and kept unfed for the duration of the experiment. The gender and ovarian maturation stage was determined by using a minor gonad tissue biopsy technique and, thereafter, animals were individually segregated in a flowthrough aerated tank filled with approximately 55 L of filtered seawater for a minimum of 24 h to recover and acclimatize.
AsoRGP1 and AsoRGP2 were synthesized as described previously. In addition, a modified form of AsoRGP2 was synthesized in which the N-terminal residue of the A-chain (glutamine, Q) was substituted with pyroglutamate (pQ), recognizing the possibility of this potential post-translational modification. […] In vitro spawning assays using ovarian fragments were performed following procedures described previously. In brief, the ovaries were excised and cut using scissors into small fragments containing only a few lobes. The ovarian fragments were then incubated in artificial seawater containing RGP-type peptides at a range of concentrations (2 × 10^−10–2 × 10^−6 M) for 1 h. As a control experiment, ovarian fragments were incubated in artificial seawater alone. The samples were examined to determine whether or not in vitro spawning had occurred and were scored as follows: (+ + +) spawning occurred and most oocytes had matured; (+ +) about 50% of oocytes had matured, ( +) a few oocytes had matured and ( −): no spawning occurred. […] Means ± standard error of mean (SEM) were determined from four separate assays using ovaries from four different animals.

AsolRXFP/LGR3 = target: T1, AsolRXFP/LGR3 (Acanthaster planci, UniProt A0A8B7XXQ8); test: CRE reporter gene assay in CHO cells stably expressing AsolRXFP/LGR3; format: cell-based, A. cf. solaris; conditions: CHO-AsolRXFP/LGR3 cells, increasing concentrations
T1 sequence (A0A8B7XXQ8 1-847): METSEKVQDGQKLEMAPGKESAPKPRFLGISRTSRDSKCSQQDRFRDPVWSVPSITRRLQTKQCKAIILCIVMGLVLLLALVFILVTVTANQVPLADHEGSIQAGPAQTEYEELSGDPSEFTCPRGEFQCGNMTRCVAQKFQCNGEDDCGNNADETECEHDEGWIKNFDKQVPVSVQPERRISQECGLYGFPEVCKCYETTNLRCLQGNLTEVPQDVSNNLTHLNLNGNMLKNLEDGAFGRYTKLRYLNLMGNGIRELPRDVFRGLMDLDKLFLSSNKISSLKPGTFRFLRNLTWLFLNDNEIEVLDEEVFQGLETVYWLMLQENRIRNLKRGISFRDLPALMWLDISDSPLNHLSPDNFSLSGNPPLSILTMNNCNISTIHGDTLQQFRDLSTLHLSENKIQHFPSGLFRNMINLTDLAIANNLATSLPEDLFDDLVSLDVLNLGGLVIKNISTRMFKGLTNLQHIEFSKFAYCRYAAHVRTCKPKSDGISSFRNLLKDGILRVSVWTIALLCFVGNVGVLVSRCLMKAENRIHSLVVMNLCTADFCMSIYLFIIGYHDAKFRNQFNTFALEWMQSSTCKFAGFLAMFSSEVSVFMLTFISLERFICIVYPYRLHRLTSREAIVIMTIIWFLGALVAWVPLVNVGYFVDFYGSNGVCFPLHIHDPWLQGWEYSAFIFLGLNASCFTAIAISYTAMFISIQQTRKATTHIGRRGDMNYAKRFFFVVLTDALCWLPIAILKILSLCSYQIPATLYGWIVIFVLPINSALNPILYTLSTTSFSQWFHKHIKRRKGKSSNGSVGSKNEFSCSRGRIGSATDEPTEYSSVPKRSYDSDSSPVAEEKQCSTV
Description: Human embryonic kidney (HEK) 293T cells were grown in complete Dulbecco’s modified Eagle medium (DMEM; Gibco) and Chinese hamster ovary (CHO) cells in complete DMEM/F12 (Gibco). Media was supplemented with 10% fetal bovine serum, 1% penicillin/streptomycin, and 1% L‐glutamine (complete media; All from Gibco). HEK-293T cells were transfected with LipofectAMINE 2000 (Invitrogen) and CHO cells with CHO TransIT and CHO-Mojo (Mirus), both according to the manufacturer’s instructions.
CHO and HEK293T cells stably expressing AsolRXFP/LGR3 were generated by lentiviral transduction. HEK293T cells were plated in 10 cm dishes for transfection with pLenti X1-Ef1α-COT-RXFP-like 2-IRES-GFP along with the lentiviral packaging and envelope plasmids pMDL, pRSV‐Rev, and pCMV‐VSV‐G, using Lipofectamine 2000. The following day, media containing lentivirus was harvested and filtered through a 0.45 μm syringe filter. Fresh CHO and HEK293T cells in 10 cm plates were transduced by replacing the cell culture media with the filtered media containing lentivirus, mixed with 4 μg/mL hexadimethrine bromide (Polybrene) to increase transduction efficiency. Three rounds of transduction were performed over 32 h, before cells were allowed to recover for three days in complete media. Transduced cells were sorted from non-transduced cells using the GFP reporter by fluorescence-activated cell sorting (FACS), using a Becton Dickinson FACSAria III as previously described. Single, live cells with low GFP expression were selected to represent low AsolRXFP/LGR3 expression and were subsequently grown to confluency in a T175 flask and cryopreserved.
The ability of the A. cf. solaris receptors to respond to A. cf. solaris RGP1 and RGP2 peptides was tested using a pCRE β-galactosidase reporter gene assay in CHO cells stably expressing AsolRXFP/LGR3 or HEK-293T cells transfected with AsolRXFP/LGR4 (long) or AsolRXFP/LGR4 (short), as described in detail previously. Importantly, the pCRE β-galactosidase reporter gene assay measures both Gs and Gq activation downstream of GPCR activation by monitoring CREB-mediated gene transcription. Cells were seeded in 96 well plates and were left to grow overnight at 37 °C in an incubator with 5% CO2. The next day the cells were transfected with different amounts of the pCRE reporter gene DNA [57] and/or pcDNA3.1 receptor constructs, as described above, and were left to grow overnight in an incubator. Triplicate wells in each plate were transfected with the equivalent amount of pCRE reporter gene DNA and pcDNA3.1 without a receptor-encoding insert as the background CRE activity control. The next day cells were exposed in triplicate wells to increasing concentrations of peptides diluted in media for 6 h at 37 °C in an incubator. Triplicate parallel wells contained 5 µM forskolin and blank media as positive and negative controls, respectively. At the end of the incubation period, the media was aspirated, and the plate was stored at − 80 °C until development. Plates were thawed for the development of β-galactosidase activity, as described previously, with absorbance being read at 570 nm on an Epoch 2 microplate reader. The data were analyzed as the percentage of the response induced by 5 µM forskolin and pooled followed by fitting to a three-parameter sigmoidal dose–response curve using GraphPad Prism 10. Experiments were performed at least three times with triplicate determinations in each assay (Additional file 17: Dataset S10).

[4] = target: Acanthaster cf. solaris relaxin family peptide receptor/leucine-rich repeat G protein-coupled receptor 3, N-terminally modified (prolactin signal peptide, FLAG tag) (Acanthaster cf. solaris)

- EC50 of peptide-induced luminescence (GFP-apoaequorin G5A, chimeric G-protein GqS5) in CHO-K1 cells transfected with ArubRXFP/LGR3, 10^-14 to 10^-5 M [1]: 383 nM
- EC50 of peptide-induced luminescence (GFP-apoaequorin G5A, chimeric G-protein GqS5) in CHO-K1 cells transfected with modified ArubRXFP/LGR3 [2]: 510 nM
Substance: Asterias rubens relaxin-like gonad-stimulating peptide 2 (ligand)

Substance: Acanthaster cf. solaris Relaxin-like gonad-stimulating peptide 2 modified with pyroglutamate replacing glutamine at the N-terminus of the A-chain [Asol-pQ-RGP2]
- relative potency in inducing shedding of mature eggs / spawning ([3]; compared with RGP1 or unmodified RGP2): less potent than AsolRGP1 and AsolRGP2
- relative potency in inducing shedding of mature eggs / spawning ([3]; compared with RGP1 or unmodified RGP2, listed as Asol-pQ-RGP): less potent than unmodified AsolRGP2

Substance: recombinant human relaxin-2 [H2 relaxin, reference compound]
- cAMP activity / CRE reporter gene activation (AsolRXFP/LGR3): No response

- pEC50 of CRE reporter gene activation in CHO-AsolRXFP/LGR3 cells [4]: 7.8 pEC50
- potency (EC50) of CRE reporter gene activation in CHO-AsolRXFP/LGR3 cells [4]: 16 nM
Substance: Acanthaster cf. solaris relaxin-like gonad-stimulating peptide 1 (ligand)
